Assay results: article PMC10897393, “Cellular reprogramming in vivo initiated by SOX4 pioneer factor activity”

What was measured:
MYC-FLAG-HNF4A = target: T1, MYC-FLAG-HNF4A (Mus musculus, UniProt P49698 1-474); experiment: EMSA; EMSA: 10 mM Tris-HCl pH 7.5, 1 mM MgCl2, 1 mM DTT, 50 mM KCl, 0.3 mg/ml BSA, 5% glycerol, RT 30 min; 5% native PAGE in 0.5x TBE; details: protein: commercial; tags: MYC-FLAG; chain copies: 2; label: Cy5 5'-end; blunt
T1 sequence: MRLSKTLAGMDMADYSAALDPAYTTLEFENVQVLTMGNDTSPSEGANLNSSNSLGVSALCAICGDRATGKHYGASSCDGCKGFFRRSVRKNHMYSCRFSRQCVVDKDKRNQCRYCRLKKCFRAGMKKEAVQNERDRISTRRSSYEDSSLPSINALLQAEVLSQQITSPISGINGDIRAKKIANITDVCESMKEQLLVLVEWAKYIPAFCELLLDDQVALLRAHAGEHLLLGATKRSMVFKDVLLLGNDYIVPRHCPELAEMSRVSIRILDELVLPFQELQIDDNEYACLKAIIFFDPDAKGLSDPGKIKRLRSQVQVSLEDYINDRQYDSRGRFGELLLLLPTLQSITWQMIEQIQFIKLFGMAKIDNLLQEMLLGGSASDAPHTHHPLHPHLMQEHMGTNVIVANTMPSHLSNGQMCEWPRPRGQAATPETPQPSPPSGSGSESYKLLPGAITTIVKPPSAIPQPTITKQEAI

FLAG-SOX4 [1] = target: T2, FLAG-SOX4 (Mus musculus, UniProt Q06831 1-440); experiment: EMSA; more robust binding than HNF4A; EMSA: 10 mM Tris-HCl pH 7.5, 1 mM MgCl2, 1 mM DTT, 50 mM KCl, 0.3 mg/ml BSA, 5% glycerol, RT 30 min; 5% native PAGE in 0.5x TBE; details: protein: recombinant; label: Cy5 5'-end; blunt
FLAG-SOX4 [2] = target: T2, FLAG-SOX4; experiment: competition; SOX4 displaces pre-bound HNF4A (30 nM); value is the effective SOX4 concentration; EMSA: 10 mM Tris-HCl pH 7.5, 1 mM MgCl2, 1 mM DTT, 50 mM KCl, 0.3 mg/ml BSA, 5% glycerol, RT 30 min; 5% native PAGE in 0.5x TBE; details: protein: recombinant; label: Cy5 5'-end; blunt

Measured: binding result

T2 sequence (Q06831 whole entry): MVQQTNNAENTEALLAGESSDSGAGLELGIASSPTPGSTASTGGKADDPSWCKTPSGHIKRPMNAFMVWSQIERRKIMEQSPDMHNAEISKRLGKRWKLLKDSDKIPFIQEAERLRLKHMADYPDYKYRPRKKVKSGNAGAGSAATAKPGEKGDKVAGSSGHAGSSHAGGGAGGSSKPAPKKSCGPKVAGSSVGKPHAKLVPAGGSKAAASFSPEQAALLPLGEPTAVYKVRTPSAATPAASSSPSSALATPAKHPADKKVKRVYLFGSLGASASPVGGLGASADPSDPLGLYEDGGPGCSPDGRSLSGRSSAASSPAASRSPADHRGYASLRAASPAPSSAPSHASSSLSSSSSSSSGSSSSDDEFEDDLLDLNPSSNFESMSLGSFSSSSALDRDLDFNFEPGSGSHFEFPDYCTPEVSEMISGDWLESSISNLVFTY

B1: Cyp2e1 distal enhancer WT (HNF4A motif) (dsDNA)
DNA 1: ATCTCTGGGACAAAGTATAGAGAAG
DNA 2: CTTCTCTATACTTTGTCCCAGAGAT
binds: all assays above
